Data reported in US20090093061A1.

Key:
Test in all cases: GroEL-490 bead column capture of denatured serum, ATP elution, LC-MS-MS
[1] = target: insulin-like 6 precursor (Homo sapiens) (UniProt Q9Y581)
[2] = target: H factor 1 (complement) (Homo sapiens) (UniProt P08603)
[3] = target: apolipoprotein A-I precursor (Homo sapiens) (UniProt P02647)
[4] = target: RAN-binding protein 2-like 1 isoform 1 (Homo sapiens) (UniProt Q99666)
[5] = target: titin isoform N2-A (Homo sapiens) (UniProt Q8WZ42)
[6] = target: chondroitin sulfate proteoglycan 6 (bamacan) (Homo sapiens) (UniProt Q9UQE7)
[7] = target: H2A histone family, member X (Homo sapiens) (UniProt P16104)
[8] = target: ATPase, H+ transporting, lysosomal V0 subunit a isoform 2 (Homo sapiens) (UniProt Q9Y487)
[9] = target: similar to zinc finger, CW-type with PWWP domain 1 (Homo sapiens)
[10] = target: complement component 4 binding protein, alpha (Homo sapiens) (UniProt P04003)
[11] = target: hematopoletic protein 1 (Homo sapiens) (UniProt P55160)
[12] = target: solute carrier family 4, anion exchanger, member 2 (erythrocyte membrane protein band 3-liKe 1) (Homo sapiens) (UniProt P04920)
[13] = target: similar to ataxin 2 binding protein 1 isoform gamma (Homo sapiens)
[14] = target: kinesin family member 23 isoform 1 (Homo sapiens) (UniProt Q02241)
[15] = target: inter-alpha (globulin) inhibitor, H2 polypeptide (Homo sapiens) (UniProt P19823)
bassoon (Homo sapiens) = bassoon (Homo sapiens) (UniProt Q9UPA5)
[16] = target: zinc finger protein 28 (Homo sapiens) (UniProt Q8NHY6)
[17] = target: similar to KIAA1074 protein (Homo sapiens) (UniProt Q9UPS8)
[18] = target: KIAA1330 protein (Homo sapiens) (UniProt Q96L96)
[19] = target: alpha 1 type IX collagen isoform 1 precursor (Homo sapiens) (UniProt P20849)
[20] = target: angiomotin like 2 (Homo sapiens) (UniProt Q9Y2J4)
[21] = target: alpha 2 macroglobulin precursor (Homo sapiens) (UniProt P01023)
[22] = target: Rho GTPase activating protein 5 (Homo sapiens) (UniProt Q13017)
[23] = target: NYD-SP11 protein (Homo sapiens)
[24] = target: dynein, cytoplasmic, heavy polypeptide 2 (Homo sapiens) (UniProt Q8NCM8)
[25] = target: E74-like factor 4 (ets domain transcription factor) (Homo sapiens) (UniProt Q99607)
[26] = target: START domain containing 9 (Homo sapiens) (UniProt Q9P2P6)
[27] = target: hypothetical protein FLJ35834 (Homo sapiens)
dendrin (Homo sapiens) = dendrin (Homo sapiens) (UniProt O94850)
[28] = target: serine (or cysteine) proteinase inhibitor, clade A (alpha-1 antiproteinase, antitrypsin), member 1 (UniProt P01009)
[29] = target: zinc finger protein 469 (Homo sapiens) (UniProt Q96JG9)
[30] = target: triple functional domain (PTPRF interacting) (Homo sapiens) (UniProt O75962)
[31] = target: ectonucleoside triphosphate diphosphohydrolase 7 (Homo sapiens) (UniProt Q9NQZ7)
[32] = target: hypothetical protein XP_378771 (Homo sapiens)

GroEL having Aspartate 490 substituted with Cysteine, biotinylated and conjugated onto NeutrAvidin beads, sequence (A1AJ51 whole entry D490C): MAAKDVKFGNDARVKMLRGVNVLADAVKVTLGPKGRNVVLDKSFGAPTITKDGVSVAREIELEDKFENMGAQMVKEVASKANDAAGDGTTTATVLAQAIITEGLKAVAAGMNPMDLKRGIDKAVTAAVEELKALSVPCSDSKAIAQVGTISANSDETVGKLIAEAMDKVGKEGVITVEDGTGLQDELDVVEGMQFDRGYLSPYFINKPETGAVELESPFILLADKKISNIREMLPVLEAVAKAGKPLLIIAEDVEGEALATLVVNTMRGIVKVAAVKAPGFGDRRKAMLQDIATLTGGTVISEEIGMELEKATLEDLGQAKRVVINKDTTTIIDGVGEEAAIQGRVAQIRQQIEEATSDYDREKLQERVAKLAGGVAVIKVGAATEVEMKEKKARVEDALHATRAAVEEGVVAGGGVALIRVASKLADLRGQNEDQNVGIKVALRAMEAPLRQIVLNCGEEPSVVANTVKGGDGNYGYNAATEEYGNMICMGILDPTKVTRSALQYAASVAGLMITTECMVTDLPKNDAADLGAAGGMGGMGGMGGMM
ATPase, H+ transporting, lysosomal V0 subunit a isoform 2 (Homo sapiens), sequence (Q9Y487 whole entry, the tested form may be a part, canonical isoform): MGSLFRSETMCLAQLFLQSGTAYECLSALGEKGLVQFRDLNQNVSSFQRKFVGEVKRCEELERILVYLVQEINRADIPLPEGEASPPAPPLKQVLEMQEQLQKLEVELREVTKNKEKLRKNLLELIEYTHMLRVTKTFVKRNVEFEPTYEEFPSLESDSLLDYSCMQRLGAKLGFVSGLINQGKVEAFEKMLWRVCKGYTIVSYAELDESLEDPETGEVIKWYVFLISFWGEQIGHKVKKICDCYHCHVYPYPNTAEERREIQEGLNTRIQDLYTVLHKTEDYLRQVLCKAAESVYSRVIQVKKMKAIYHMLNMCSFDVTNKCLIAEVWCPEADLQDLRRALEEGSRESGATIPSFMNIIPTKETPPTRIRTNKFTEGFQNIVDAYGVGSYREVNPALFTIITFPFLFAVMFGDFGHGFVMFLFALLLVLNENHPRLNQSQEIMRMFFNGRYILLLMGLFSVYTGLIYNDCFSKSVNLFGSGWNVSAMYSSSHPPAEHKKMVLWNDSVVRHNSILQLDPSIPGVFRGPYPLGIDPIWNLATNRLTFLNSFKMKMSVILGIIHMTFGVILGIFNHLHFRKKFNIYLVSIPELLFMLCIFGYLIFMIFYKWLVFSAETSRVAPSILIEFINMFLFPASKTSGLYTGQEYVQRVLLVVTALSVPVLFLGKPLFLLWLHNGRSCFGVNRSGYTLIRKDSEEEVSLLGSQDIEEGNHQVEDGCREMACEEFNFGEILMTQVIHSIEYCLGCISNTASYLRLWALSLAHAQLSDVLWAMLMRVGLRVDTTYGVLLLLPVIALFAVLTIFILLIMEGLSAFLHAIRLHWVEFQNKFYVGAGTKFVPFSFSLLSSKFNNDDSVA
KIAA1330 protein (Homo sapiens), sequence (Q96L96 whole entry, canonical isoform): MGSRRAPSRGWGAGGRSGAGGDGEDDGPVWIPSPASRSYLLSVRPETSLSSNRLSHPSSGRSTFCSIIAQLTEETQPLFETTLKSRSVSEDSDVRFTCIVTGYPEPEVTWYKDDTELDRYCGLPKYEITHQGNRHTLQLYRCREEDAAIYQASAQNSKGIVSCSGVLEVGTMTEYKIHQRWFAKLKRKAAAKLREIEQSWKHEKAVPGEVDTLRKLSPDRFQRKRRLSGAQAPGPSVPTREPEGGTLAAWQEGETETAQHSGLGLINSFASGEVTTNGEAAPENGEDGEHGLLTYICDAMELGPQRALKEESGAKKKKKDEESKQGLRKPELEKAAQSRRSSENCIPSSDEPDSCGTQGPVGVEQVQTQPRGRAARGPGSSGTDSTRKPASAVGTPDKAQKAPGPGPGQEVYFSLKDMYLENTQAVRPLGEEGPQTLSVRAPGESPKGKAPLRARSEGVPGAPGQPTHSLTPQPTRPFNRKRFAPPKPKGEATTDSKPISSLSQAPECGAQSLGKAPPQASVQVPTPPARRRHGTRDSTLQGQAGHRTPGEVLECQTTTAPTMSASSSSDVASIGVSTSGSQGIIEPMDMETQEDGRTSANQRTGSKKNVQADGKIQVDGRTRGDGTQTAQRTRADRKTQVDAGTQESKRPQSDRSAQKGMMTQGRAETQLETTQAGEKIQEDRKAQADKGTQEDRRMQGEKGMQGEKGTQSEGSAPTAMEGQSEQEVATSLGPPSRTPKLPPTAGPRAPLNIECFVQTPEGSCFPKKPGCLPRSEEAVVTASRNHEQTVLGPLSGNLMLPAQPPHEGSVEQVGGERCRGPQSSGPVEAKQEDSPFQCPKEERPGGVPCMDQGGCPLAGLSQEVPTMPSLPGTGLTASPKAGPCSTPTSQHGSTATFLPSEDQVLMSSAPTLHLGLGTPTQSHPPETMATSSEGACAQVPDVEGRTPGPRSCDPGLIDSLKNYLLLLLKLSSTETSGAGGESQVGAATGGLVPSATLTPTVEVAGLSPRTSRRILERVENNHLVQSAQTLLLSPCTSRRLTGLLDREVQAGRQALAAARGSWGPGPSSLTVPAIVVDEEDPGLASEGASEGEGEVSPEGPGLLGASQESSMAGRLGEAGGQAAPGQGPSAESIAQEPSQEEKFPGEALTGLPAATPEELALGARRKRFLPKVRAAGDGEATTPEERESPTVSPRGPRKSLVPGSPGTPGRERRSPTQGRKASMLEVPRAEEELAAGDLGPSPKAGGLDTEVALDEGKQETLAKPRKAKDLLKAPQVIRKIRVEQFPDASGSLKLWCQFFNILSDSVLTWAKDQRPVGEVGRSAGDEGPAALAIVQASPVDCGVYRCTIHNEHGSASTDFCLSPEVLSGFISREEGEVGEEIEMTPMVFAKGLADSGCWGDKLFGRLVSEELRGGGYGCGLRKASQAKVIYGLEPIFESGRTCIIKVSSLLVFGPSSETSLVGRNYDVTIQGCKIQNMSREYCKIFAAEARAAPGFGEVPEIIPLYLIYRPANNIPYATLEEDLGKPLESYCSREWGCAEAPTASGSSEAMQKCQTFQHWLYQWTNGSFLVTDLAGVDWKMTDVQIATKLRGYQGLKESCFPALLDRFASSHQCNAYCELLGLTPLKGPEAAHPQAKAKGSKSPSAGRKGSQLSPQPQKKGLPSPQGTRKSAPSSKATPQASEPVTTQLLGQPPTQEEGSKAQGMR
hematopoletic protein 1 (Homo sapiens), sequence (P55160 whole entry): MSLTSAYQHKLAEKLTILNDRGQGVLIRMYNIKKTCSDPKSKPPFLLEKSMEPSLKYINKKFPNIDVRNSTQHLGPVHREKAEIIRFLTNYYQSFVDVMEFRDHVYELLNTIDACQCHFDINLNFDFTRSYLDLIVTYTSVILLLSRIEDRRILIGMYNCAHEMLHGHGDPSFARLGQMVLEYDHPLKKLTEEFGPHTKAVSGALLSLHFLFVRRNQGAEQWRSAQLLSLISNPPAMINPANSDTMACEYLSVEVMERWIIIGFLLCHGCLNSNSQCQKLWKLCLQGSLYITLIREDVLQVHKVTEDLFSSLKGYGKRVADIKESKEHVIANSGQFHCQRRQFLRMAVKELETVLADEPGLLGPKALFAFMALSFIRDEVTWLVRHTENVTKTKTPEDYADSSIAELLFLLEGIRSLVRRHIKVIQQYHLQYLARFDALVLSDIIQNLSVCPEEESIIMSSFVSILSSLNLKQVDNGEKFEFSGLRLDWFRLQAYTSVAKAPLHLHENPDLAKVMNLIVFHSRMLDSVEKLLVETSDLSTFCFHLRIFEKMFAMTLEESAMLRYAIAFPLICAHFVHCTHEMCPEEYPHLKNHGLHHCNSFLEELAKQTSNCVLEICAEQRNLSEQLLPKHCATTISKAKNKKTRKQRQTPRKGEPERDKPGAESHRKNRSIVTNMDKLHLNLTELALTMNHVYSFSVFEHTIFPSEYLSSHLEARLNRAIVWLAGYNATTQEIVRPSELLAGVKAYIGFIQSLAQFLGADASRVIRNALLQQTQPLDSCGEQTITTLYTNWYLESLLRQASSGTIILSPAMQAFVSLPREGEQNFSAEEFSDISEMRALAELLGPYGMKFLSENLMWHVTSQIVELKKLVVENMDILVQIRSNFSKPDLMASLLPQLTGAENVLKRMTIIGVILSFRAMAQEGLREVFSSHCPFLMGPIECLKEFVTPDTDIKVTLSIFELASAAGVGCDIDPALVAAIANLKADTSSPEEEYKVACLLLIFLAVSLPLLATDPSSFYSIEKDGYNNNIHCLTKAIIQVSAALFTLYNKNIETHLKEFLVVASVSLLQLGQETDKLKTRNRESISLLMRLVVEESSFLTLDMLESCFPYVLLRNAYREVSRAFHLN
angiomotin like 2 (Homo sapiens), sequence (Q9Y2J4 whole entry): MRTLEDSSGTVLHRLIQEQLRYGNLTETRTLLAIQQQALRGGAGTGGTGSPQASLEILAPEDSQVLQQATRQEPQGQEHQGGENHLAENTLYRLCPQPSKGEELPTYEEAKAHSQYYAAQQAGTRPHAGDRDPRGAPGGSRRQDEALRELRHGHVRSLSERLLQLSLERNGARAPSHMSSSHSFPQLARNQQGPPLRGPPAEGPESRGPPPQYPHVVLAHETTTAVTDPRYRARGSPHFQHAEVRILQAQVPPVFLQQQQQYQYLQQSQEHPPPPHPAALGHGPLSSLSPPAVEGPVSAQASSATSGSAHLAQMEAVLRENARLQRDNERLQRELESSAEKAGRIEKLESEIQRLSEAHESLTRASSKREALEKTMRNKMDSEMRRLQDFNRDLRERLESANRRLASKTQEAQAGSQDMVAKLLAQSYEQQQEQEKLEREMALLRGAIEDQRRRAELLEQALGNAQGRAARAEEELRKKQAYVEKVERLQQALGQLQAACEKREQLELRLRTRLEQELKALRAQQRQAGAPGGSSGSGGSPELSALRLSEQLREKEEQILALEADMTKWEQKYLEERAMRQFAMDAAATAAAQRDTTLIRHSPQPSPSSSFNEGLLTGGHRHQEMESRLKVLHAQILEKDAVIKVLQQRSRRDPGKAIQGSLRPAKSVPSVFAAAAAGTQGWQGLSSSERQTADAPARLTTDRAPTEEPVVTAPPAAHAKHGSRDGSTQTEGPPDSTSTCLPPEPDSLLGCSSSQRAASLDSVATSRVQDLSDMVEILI

Substance: GroEL having Aspartate 490 substituted with Cysteine, biotinylated and conjugated onto NeutrAvidin beads (from UniProt A1AJ51 1-548)
- Spectrum Count [1]: 13 count
- Spectrum Count [2]: 12 count
- Spectrum Count [3]: 13 count
- Spectrum Count [4]: 11 count
- Spectrum Count [5]: 16 count
- Spectrum Count [6]: 9 count
- Spectrum Count [7]: 41 count
- Spectrum Count [8]: 12 count
- Spectrum Count [9]: 16 count
- Spectrum Count [10]: 14 count
- Spectrum Count [11]: 35 count
- Spectrum Count [12]: 12 count
- Spectrum Count [13]: 11 count
- Spectrum Count [14]: 53 count
- Spectrum Count [15]: 10 count
- Spectrum Count (bassoon (Homo sapiens)): 12 count
- Spectrum Count [16]: 18 count
- Spectrum Count [17]: 28 count
- Spectrum Count [18]: 13 count
- Spectrum Count [19]: 10 count
- Spectrum Count [20]: 17 count
- Spectrum Count [21]: 43 count
- Spectrum Count [22]: 12 count
- Spectrum Count [23]: 11 count
- Spectrum Count [24]: 10 count
- Spectrum Count [25]: 17 count
- Spectrum Count [26]: 10 count
- Spectrum Count [27]: 9 count
- Spectrum Count (dendrin (Homo sapiens)): 14 count
- Spectrum Count [28]: 20 count
- Spectrum Count [29]: 13 count
- Spectrum Count [30]: 14 count
- Spectrum Count [31]: 41 count
- Spectrum Count [32]: 17 count
